Data on one molecule can be found in article PMC6945068.

The experiment addresses purified 3xFlag-tagged B56γ (Xenopus laevis). Description: pull-down (amylose beads) with immunoblot quantification. The note with it: chain shown with the change, purified Flag-B56γ, 23°C, 30 min, read off a plot.

Chain of purified 3xFlag-tagged B56γ (Xenopus laevis) (chain, as listed by the source): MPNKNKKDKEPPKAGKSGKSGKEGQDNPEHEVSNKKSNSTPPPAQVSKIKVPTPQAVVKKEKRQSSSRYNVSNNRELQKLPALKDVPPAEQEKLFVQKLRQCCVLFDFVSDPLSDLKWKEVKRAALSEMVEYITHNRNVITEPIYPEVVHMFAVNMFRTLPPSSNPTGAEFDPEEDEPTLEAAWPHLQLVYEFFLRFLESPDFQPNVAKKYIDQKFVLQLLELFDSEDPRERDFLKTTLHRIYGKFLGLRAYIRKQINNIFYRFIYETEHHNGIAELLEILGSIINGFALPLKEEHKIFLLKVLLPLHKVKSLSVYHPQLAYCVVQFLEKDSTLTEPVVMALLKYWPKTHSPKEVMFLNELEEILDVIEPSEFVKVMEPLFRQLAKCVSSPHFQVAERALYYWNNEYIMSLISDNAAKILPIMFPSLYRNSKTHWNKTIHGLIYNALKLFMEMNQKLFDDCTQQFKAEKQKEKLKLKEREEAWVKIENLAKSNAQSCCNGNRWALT

B1: MBP-fused Apc1-loop^500 wild type (residues 515-584 of Xenopus tropicalis Apc1), Q08D52 T532A; T539A; S558A (protein)
chain: GLAAPSLGMSNPMPRPSAPLESISAPAKPLNKHLAPMDEAGMLAPVPELRDSTRLHESTYLDDCTFHQFG
As to B1, the response by setting is: (pre-incubated with Cdk2-cyclin A at 30°C for 60 min (+Cdk), parent: est. 5.3) 1.2 A.U; (without Cdk2-cyclin A pre-incubation, parent: 1.0) 1 A.U.
